Test results from paper PMC12132507 (bioRxiv, 2025).

B1: N-terminal domain of the clathrin heavy chain, TD40 (domain or fragment)
chain: MAQILPIRFQEHLQLQNLGINPANIGFSTLTMESDKFICIREKVGEQAQVVIIDMNDPSNPIRRPISADSAIMNPASKVIALKAGKTLQIFNIEMKSKMKAHTMTDDVTFWKWISLNTVALVTDNAVYHWSMEGESQPVKMFDRHSSLAGCQIINYRTDAKQKWLLLTGISAQQNRVVGAMQLYSVDRKVSQPIEGHAASFAQFKMEGNAEESTLFCFAVRGQAGGKLHIIEVGTPPTGNQPFPKKAVDVFFPPEAQNDFPVAMQISEKHDVVFLITKYGYIHLYDLETGTCIYMNRISGETIFVTAPHEATAGIIGVNRKGQVLSVCVEEENIIPYITNVLQNPDLALRMAVRNNLAGAEEL

What was measured:
[1] = biological target: T1, Eps15IDR (C-terminal intrinsically disordered region of human Eps15, residues 481 to 897) (human, UniProt P42566 481-896); assay: NMR titration
T1 sequence: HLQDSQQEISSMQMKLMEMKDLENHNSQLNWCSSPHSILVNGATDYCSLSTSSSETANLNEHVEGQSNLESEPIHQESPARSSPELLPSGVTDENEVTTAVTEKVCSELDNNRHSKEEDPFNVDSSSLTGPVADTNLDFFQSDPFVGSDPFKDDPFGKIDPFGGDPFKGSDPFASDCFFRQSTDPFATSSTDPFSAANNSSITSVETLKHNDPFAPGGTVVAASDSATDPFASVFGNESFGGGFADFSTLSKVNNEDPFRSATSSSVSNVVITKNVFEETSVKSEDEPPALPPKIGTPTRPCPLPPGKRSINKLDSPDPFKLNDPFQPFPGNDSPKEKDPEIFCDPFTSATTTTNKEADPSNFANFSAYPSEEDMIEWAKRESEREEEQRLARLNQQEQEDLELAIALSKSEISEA

[2] = biological target: B1; assay: NMR titration

B1: binds [1].

B2: Eps15(569-671) (domain or fragment)
chain: SGVTDENEVTTAVTEKVCSELDNNRHSKEEDPFNVDSSSLTGPVADTNLDFFQSDPFVGSDPFKDDPFGKIDPFGGDPFKGSDPFASDCFFRQSTDPFATSST
B2: binds [2].

B3: Eps15(648-780) (domain or fragment)
chain: KGSDPFASDCFFRQSTDPFATSSTDPFSAANNSSITSVETLKHNDPFAPGGTVVAASDSATDPFASVFGNESFGGGFADFSTLSKVNNEDPFRSATSSSVSNVVITKNVFEETSVKSEDEPPALPPKIGTPTR
B3: binds [2].
